Laboratory results from patent publication US20260098096A1 (MONASH UNIVERSITY, published 2026).

T1: Mouse CCR8 (mouse, UniProt P56484 1-353)
T1 construct: Expressed on transfected CHO-Flpn or L1.2 cells; also called mCCR8
T1 sequence: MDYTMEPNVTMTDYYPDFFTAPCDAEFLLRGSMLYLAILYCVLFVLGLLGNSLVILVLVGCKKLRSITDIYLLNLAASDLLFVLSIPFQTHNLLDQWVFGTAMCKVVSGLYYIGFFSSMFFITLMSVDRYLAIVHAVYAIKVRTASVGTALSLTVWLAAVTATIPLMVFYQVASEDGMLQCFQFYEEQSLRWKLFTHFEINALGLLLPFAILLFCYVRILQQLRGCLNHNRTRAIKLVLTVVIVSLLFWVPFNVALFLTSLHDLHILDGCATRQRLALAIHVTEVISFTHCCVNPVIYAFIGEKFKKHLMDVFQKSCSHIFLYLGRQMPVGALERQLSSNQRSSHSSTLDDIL

T2: human CCR3 (human, UniProt P51677 1-355)
T2 construct: whole, on cells
T2 sequence (looked up): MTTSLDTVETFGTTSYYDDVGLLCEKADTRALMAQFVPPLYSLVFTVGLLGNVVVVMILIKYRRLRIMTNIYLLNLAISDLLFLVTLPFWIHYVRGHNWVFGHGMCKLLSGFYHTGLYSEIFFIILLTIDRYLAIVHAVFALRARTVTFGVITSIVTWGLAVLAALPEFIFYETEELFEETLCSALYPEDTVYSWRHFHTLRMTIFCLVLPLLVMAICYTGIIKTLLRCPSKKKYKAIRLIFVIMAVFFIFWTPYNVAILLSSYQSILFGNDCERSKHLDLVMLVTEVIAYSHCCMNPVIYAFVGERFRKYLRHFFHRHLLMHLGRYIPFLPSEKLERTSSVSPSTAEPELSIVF

T3: human CCR10 (human, UniProt P46092 1-362)
T3 construct: whole, on cells
T3 sequence (looked up): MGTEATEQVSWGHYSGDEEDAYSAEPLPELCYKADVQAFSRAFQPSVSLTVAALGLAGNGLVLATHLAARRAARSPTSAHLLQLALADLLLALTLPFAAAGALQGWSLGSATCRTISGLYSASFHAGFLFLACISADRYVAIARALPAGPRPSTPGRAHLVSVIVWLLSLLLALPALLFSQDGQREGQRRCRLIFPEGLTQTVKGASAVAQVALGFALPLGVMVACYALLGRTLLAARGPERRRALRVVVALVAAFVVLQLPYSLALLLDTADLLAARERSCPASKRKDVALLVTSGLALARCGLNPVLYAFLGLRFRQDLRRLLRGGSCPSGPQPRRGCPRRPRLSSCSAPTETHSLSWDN

T4: human CCR6 (human, UniProt P51684 1-374)
T4 construct: whole, on cells
T4 sequence (looked up): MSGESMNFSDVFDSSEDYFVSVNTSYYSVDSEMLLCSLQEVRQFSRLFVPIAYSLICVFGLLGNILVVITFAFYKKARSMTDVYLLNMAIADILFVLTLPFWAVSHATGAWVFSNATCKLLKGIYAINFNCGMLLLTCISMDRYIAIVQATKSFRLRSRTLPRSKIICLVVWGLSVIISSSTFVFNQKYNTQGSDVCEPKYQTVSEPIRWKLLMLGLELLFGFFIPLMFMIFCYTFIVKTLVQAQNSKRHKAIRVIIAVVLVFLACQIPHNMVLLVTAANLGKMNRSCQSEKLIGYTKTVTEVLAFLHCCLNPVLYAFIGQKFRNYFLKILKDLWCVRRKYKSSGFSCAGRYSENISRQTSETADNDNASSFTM

T5: human CCR7 (human, UniProt P32248 25-378)
T5 construct: whole, on cells
T5 sequence (looked up): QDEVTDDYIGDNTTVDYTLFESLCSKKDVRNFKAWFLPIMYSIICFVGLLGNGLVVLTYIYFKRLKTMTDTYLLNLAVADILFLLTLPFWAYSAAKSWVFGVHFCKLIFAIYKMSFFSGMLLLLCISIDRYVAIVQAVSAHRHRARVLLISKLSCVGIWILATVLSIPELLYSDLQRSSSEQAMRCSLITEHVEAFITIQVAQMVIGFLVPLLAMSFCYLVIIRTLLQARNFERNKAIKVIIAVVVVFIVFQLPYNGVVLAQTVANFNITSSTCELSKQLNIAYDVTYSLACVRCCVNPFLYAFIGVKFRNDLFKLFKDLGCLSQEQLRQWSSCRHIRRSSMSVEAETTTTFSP


What was measured:
Human CCR8 = target: T6, Human CCR8 (human, UniProt P51685 1-355); experiment: flow cytometry on hCCR8-L1.2 transfected cells
T6 construct: Expressed on transfected CHO-Flpn or L1.2 cells; also called hCCR8; C-C chemokine receptor type 8
T6 sequence (P51685 whole entry): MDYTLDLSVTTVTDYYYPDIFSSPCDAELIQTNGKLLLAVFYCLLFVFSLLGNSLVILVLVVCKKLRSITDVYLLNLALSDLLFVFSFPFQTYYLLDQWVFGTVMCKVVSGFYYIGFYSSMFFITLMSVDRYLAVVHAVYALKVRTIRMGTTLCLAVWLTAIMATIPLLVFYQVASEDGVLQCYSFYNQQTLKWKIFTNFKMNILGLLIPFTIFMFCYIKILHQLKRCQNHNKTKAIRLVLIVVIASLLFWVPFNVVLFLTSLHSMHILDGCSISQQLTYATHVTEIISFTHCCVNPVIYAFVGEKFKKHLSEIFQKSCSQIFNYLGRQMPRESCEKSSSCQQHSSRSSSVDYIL

Mouse CCR8 = target: T1, Mouse CCR8; experiment: flow cytometry on transfected CHO-Flpn cells
hCCR8_174-175 VA-AG = target: T7, hCCR8_174-175 VA-AG (human, UniProt P51685 1-355); experiment: epitope mapping on transfected cells
T7 construct: also called Mut 174-175
T7 sequence (P51685 whole entry V174A/A175G): as the sequence (P51685 whole entry) above, with V174A, A175G counted along it

hCCR8_172-173 YQ-AA = target: T8, hCCR8_172-173 YQ-AA (human, UniProt P51685 1-355); experiment: epitope mapping on transfected cells
T8 construct: also called Mut 172-173
T8 sequence (P51685 whole entry Y172A/Q173A): as the sequence (P51685 whole entry) above, with Y172A, Q173A counted along it

human CCR3 = target: T2, human CCR3; experiment: flow cytometry on transfected L1.2 cells
human CCR10 = target: T3, human CCR10; experiment: flow cytometry on transfected L1.2 cells
human CCR6 = target: T4, human CCR6; experiment: flow cytometry on transfected L1.2 cells
human CCR7 = target: T5, human CCR7; experiment: flow cytometry on transfected L1.2 cells
Cynomolgus CCR8 = target: T9, Cynomolgus CCR8 (cynomolgus monkey, UniProt O97665 1-356 (rhesus entry)); experiment: flow cytometry on HEK293T cells transfected with cyno CCR8
T9 construct: also called cyno CCR8; cynomolgus monkey CCR8
T9 sequence (O97665 other isoform, or with tags, fused parts or gaps): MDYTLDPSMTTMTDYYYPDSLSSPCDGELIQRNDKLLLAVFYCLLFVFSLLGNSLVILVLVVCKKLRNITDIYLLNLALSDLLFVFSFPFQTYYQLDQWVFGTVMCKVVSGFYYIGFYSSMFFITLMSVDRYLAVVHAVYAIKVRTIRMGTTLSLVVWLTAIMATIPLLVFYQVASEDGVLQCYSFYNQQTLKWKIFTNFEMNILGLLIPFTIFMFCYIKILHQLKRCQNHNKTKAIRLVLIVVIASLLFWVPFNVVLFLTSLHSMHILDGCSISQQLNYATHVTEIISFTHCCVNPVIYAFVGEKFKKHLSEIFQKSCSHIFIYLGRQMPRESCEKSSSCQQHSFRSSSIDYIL
Text: FIG. 2. Reactivity of 2H8 antibody and other anti-hCCR8 antibodies towards Cyno CCR8. HEK293T cells were transfected with plasmid coding for cynomolgus monkey CCR8 and stained with various anti-hCCR8 antibodies (blue) or isotype control (red).

| EC50 (Human CCR8) | binding result (Mouse CCR8) | binding result (hCCR8_174-175 VA-AG) | binding result (hCCR8_172-173 YQ-AA) | binding result (human CCR3) | binding result (human CCR10) | binding result (human CCR6) | binding result (human CCR7) | binding result (Cynomolgus CCR8) | Binder |
| --- | --- | --- | --- | --- | --- | --- | --- | --- | --- |
| 2.1 nM | – | – | – | – | – | – | – | – | Humanised 2H8 (antibody, V domains shown, also called Humanized 2H8-B4; h2H8) VH: QVQLVQSGAEVKKPGASVKVSCKASGYTFTDYNMHWVRQAPGQGLEWIGYVNPNNGGTSYNQKFKGKATLTVDKSISTAYMELSRLRSDDTAVYYCARWVLRRNFAYWGQGTLVTVSS VL: DIQMTQSPSSLSASVGDRVTITCKASQDVNTAVAWYQQKPGKAPKLLIYWASTRHTGVPSRFSGSGSGTDFTLTISSLQPEDFATYYCQQHYRNPYTFGQGTKLEIK |
| 2.1 nM | – | – | – | – | – | – | – | – | Chimeric 2H8 (antibody, human IgG1, kappa, V domains shown, also called Chimeric 2H8-B4; chimeric 2H8 B4 (parental)) VH: EVQLQQSGPELVKPGASVKMSCKASGYTFTDYNMHWVKQSHGKSLEWIGYVNPNNGGTSYNQKFKGKATLTVNKSSSTAYMELRSLTSEDSAVYYCARWVLRRNFAYWGQGTLVTVSA VL: DIVMTQSHKFMSTSVGDRVSITCKASQDVNTAVAWYQQKPGQSPKLLIYWASTRHTGVPDRFTGSGSGTDYTLTISSVQAEDLALYYCQQHYRNPYTFGGGTKLEIKR |
| – | binds | binds | binds | no binding | no binding | no binding | no binding | binds | 2H8 anti-m/hCCR8 antibody (mouse hybridoma clone, isotype IgG2b) (antibody, V domains shown, Murine antibody from a mouse immunised with mouse CCR8 L1.2 cells; the mouse constant regions are not; also called 2H8-B4) VH: EVQLQQSGPELVKPGASVKMSCKASGYTFTDYNMHWVKQSHGKSLEWIGYVNPNNGGTSYNQKFKGKATLTVNKSSSTAYMELRSLTSEDSAVYYCARWVLRRNFAYWGQGTLVTVSA VL: DIVMTQSHKFMSTSVGDRVSITCKASQDVNTAVAWYQQKPGQSPKLLIYWASTRHTGVPDRFTGSGSGTDYTLTISSVQAEDLALYYCQQHYRNPYTFGGGTKLEIK |
